Laboratory results reported in patent US20210356479A1 (BLOODWORKS, published 2021).

Assays:
[1] = target: T1, human Kell glycoprotein, k form (KEL2) (human, UniProt P23276 1-732); test: flow cytometry, indirect immunofluorescence on k/k human RBCs
T1 construct: whole, on cells; On human k/k or K-k+ RBCs; also called k antigen
T1 sequence (looked up): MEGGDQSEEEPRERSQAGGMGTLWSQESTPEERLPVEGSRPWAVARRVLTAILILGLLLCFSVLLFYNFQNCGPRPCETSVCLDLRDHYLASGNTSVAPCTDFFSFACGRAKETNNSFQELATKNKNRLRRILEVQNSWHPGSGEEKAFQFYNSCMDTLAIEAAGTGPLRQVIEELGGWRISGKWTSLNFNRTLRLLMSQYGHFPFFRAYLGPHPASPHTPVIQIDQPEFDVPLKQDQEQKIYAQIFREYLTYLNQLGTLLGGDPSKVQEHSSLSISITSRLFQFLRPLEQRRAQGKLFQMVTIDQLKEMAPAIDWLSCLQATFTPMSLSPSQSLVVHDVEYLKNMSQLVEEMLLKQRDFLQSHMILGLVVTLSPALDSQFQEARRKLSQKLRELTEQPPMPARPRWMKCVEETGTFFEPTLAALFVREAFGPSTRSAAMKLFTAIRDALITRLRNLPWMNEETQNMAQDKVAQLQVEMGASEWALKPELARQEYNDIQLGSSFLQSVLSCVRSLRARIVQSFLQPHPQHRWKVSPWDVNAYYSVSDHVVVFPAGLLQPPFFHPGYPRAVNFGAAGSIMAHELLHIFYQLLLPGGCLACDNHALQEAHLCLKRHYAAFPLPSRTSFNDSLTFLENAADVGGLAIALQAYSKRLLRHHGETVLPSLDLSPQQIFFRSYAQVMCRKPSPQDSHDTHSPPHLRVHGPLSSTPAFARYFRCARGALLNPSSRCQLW
Procedure: (§1) The specificities of the antibodies were determined to be: PUMA ½ (KEL1 or K), PUMA 3 (a common Kell epitope, PUMA 4 (KEL4 or Kp^b). Flow cytometry was utilized to test antibody specificity by indirect immunofluorescence, using the monocolonal antibodies as the primary reagent and a goat-anti-mouse antibody (conjugated to allophycocyanin) as a secondary antibody. Different target cells expressing different Kell variants were used to determine specificity. Targets included RBCs that phenotyped as homozygous for the 3 main antithetical antigens in the Kell system, K/K, k/k, Kp^{b/}Kp^b, Kp^{a/}Kp^a. Js^{b/}J^b, Js^{a/}Js^a. Differential binding to such tarets tests specificity. In the case of PUMA ½, binding was only observed when K was present but not on k/k RBCs. In the case of PUMA 3, binding was observed on all RBCs regardless of phenotype for K/k, Kp^{a/}Kp^{b,} or Js^{a/}Js^b, thus indicating a common epitope outside these systems. However, PUMA 3 bound to only KELL glycoprotein transgenic murine RBCs and not wild-type murine RBCs; thus, the epitope recognized by PUMA 3 is on the KELL molecule, but not K/k, Kp^{a/}Kp^b, or Js^{a/}Js^b. For PUMA 4, binding was only observed when Kp^b was present but not on Kp^{a/}Kp^a RBCs.

[2] = target: T2, human Kell glycoprotein, Kp^b form (KEL4) (human, UniProt P23276 1-732); test: flow cytometry, indirect immunofluorescence on Kp^b/Kp^b human RBCs
T2 construct: whole, on cells; On human Kp^b/Kp^b RBCs
T2 sequence (looked up): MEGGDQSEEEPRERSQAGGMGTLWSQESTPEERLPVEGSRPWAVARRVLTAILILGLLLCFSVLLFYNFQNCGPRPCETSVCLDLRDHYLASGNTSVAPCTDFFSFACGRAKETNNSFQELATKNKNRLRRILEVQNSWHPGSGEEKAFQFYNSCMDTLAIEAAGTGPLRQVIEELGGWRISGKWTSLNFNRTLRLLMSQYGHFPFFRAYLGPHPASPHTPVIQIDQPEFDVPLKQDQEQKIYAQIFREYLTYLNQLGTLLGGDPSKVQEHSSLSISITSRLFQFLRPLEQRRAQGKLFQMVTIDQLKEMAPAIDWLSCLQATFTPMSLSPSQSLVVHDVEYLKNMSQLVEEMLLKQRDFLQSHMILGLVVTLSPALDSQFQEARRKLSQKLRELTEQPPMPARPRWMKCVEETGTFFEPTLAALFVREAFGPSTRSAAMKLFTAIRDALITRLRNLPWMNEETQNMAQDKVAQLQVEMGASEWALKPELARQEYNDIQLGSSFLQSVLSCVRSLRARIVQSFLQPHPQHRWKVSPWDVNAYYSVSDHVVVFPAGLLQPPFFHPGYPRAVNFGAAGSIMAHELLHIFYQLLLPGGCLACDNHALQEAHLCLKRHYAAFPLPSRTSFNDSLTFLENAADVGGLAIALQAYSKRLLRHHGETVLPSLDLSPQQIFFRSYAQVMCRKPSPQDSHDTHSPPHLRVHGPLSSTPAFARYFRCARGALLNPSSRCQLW
Procedure: as §1

[3] = target: T3, human Kell glycoprotein, K form (KEL1) (human, UniProt P23276 1-732); test: flow cytometry, indirect immunofluorescence on K/K human RBCs
T3 construct: whole, on cells; On human K/K or K+k+ RBCs and on RBCs of K transgenic mice; also called K antigen; K variant
T3 sequence (looked up): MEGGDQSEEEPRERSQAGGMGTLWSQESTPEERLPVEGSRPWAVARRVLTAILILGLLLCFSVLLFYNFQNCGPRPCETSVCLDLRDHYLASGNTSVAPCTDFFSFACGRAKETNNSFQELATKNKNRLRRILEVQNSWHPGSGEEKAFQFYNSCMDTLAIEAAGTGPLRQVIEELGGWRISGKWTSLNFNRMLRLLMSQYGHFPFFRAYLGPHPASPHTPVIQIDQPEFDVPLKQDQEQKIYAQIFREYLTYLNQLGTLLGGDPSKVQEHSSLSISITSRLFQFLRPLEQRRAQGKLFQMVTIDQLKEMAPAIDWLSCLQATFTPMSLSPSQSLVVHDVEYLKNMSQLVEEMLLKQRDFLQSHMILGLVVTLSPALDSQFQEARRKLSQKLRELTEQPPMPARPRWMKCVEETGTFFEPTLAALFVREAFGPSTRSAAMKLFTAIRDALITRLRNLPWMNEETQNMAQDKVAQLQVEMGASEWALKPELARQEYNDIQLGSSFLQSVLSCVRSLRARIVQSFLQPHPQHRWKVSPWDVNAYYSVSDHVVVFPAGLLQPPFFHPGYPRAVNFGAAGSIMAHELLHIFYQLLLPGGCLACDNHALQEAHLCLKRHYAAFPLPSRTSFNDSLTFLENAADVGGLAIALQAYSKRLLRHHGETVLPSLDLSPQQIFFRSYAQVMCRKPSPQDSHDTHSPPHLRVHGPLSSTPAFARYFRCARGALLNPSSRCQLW
Procedure: as §1

[4] = target: T4, human Kell glycoprotein, Js^b form (KEL7) (human, UniProt P23276 1-732); test: flow cytometry, indirect immunofluorescence on Js^b/Js^b human RBCs
T4 construct: whole, on cells; On human Js^b/Js^b RBCs
T4 sequence (looked up): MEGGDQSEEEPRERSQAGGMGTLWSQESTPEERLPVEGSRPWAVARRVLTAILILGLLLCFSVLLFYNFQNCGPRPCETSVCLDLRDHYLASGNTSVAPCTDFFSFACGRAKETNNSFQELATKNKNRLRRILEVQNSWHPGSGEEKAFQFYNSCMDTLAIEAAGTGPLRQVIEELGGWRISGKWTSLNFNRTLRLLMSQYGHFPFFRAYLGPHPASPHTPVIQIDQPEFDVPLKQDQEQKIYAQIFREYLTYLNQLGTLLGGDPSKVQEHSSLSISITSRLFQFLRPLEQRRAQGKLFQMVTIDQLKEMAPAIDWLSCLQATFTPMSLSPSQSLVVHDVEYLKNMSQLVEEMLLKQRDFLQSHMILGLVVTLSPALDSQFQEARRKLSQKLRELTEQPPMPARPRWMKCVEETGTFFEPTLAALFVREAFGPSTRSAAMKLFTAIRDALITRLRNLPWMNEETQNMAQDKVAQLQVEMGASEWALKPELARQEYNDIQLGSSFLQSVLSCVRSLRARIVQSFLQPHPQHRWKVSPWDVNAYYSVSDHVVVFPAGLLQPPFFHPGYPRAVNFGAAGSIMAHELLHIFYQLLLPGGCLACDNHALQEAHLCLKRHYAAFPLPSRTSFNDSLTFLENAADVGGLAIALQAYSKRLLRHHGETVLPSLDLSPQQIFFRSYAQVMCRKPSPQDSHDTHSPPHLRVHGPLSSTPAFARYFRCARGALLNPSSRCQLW
Procedure: as §1

Measured: binding result

B1: PUMA 3 monoclonal antibody (antibody, V domains shown)
VH: QVQLKESGPGLLAPSQSLSITCTVSGFSLTSYGVYWVRQPPGKGLEWLGIIWGDGSTNYQSVLRSRLSITKDDSKSQVFLKLNSLQTDDTATYYCAKRGDYDVAYWGQGTLVTVSA
VL: DIVLTQSPASLAVSLGQRAIISCKASQTVSEVGTSLMHWYQQRPGQQPKLLIYRTSNLEAGVPTRFSGSGSRTDFTLNIHPVEEDDAATYYCQQSREFPWTFGGGTRLEIK
notes: Mouse monoclonal from hybridoma
binds: [1] | [2] | [3] | [4]
